Our source for the levels of Aβ (IP/Western blot of conditioned media of transfected HEK293T cells) (fold over wild-type KMDA) values is US20070101449A1.

The target of test [1] is APP695-derived polypeptide having the modified sequence NFEV at the β secretase cleavage site (UniProt P05067). The experiment in a line: cell-based or functional assay.
The target in test [2] is APP695-derived polypeptide carrying the Swedish mutant NLDA at the β secretase cleavage site (UniProt P05067). The experiment in a line: cell-based or functional assay.

Several values for one entry are separate records, joined by “and”; a condition that tells them apart may be missing. Equal entries are not always repeated.

For “human β secretase (from UniProt P56817 46-501) (enzyme)”, the levels of Aβ (IP/Western blot of conditioned media of transfected HEK293T cells) (fold over wild-type KMDA) was 15 and 20 in test [1]; 15 and 20 in test [2].
